± gives the uncertainty stated by the source.
Assay: protein stability index of a GFP-peptide fusion (yeast GPS) (PSI 1-4); higher = more stable; sorted into four equal gates, so the index is relative within each strain
Settings: doa10∆
Summary of the method: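 Plasmids in a pooled yeast library fused tiled 17-residue yeast protein peptides downstream of GFP and also expressed Cherry. Mid-log cultures grown without leucine were sorted into four equal gates by GFP/Cherry fluorescence ratio. Each gate's plasmids were PCR-amplified and Illumina-sequenced, and reads were matched to strains by barcodes. The protein stability index is derived by multiplying each gate's read frequency by its gate number and summing the results.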
Sequence FTNPSVDIQIINQYQLL [SWI1] has a protein stability index of 1.44 ± 0.055. For FTYNKFLLNQNKQLSQS [YIL149C/MLP2], the protein stability index was 2.68 ± 0.069. With FVHSVKKFLRVRIFTKI [SRB4] the protein stability index was 2.21 ± 0.082. For FVIRREVTKGEKTYTKA [RPS6A], the protein stability index was 3.24 ± 0.17. FVNGVATSFSRKKARTF [FAS2] gave a protein stability index of 1.85 ± 0.12. Sequence FVPVPALSAYHKVQTKL [RPS7B] has a protein stability index of 2.42 ± 0.046. FVQLCEMGYLIQISKLH [RPC82] showed a protein stability index of 1.74 ± 0.05. FVSRIPIMFQDFDDSTA [IRR1] showed a protein stability index of 2.1 ± 0.04. For FVTQFRHLRRTGKVSEF [RET1], the protein stability index was 3.15 ± 0.24. Work on FYKLNMPDEFNTLYTAI [SRP72] yielded a protein stability index of 2.5 ± 0.05. FYQGKTGVVYNVTKSSV [RPL21A] showed a protein stability index of 2.69 ± 0.11. FYSTNSQYFKFKNDFNS [RPN9] gave a protein stability index of 2.1 ± 0.067. With GAKPAGSTGGLGASFGQ [YGL172W/NUP49] the protein stability index was 3.38 ± 0.14. Work on GASINSMKANTSTNPNG [ARP7] yielded a protein stability index of 2.72 ± 0.089. Sequence GASVISLTKDKSIRKDT [SIR4] has a protein stability index of 3 ± 0.065. In the case of GCDENDSTVNKSITLKG [YDL088C/ASM4], the protein stability index is reported as 3.1 ± 0.091. Work on GCEANIHSLVKQRLDLA [YIL149C/MLP2] yielded a protein stability index of 3.06 ± 0.12. GDNEYITLRTSGELLQG [MCD1] showed a protein stability index of 3.14 ± 0.13. GDTVQFAEYIQANIQLY [PRE1] showed a protein stability index of 2.11 ± 0.065. With GDYNNTVYSSEQYIQEL [SMC3] the protein stability index was 2.9 ± 0.11. For GDYVAYQLNGVAPFMIK [YMR129W/POM152], the protein stability index was 1.53 ± 0.075. GEDFMEVDYEDKDNPVD [SRB4] gave a protein stability index of 3.56 ± 0.12. Work on GEENRVRFIGDSVAAIG [QCR2] yielded a protein stability index of 3.3 ± 0.15. Work on GEINKICMESLFLEPSW [PCI8] yielded a protein stability index of 1.84 ± 0.12. GEKKVGSNGELFGGRHY [SWP82] showed a protein stability index of 3.13 ± 0.2. GELRDYIEDFLLVIGGN [YJR042W/NUP85] showed a protein stability index of 2.23 ± 0.075. Work on GEMERDCMIAHGAASFL [RPB2] yielded a protein stability index of 3.04 ± 0.13. In the case of GENVFLKRISDGLSFGK [SIR3], the protein stability index is reported as 3.26 ± 0.18. GEVLGITRFGLSKMRDS [RPO31] showed a protein stability index of 3.56 ± 0.12. GFIENCNGSALVEARSL [MTR3] showed a protein stability index of 2.66 ± 0.1. Sequence GFIFTSMILEAISTDKI [RRI2] has a protein stability index of 1.35 ± 0.082. With GGCDYIFSLLTGYPDEP [CYT1] the protein stability index was 3.42 ± 0.14. Sequence GGFEYFLQPLLLVGLIK [NUT1] has a protein stability index of 1.46 ± 0.056. GGLGLNLQTADTVIIFD [SNF2] showed a protein stability index of 3.18 ± 0.12. For GGNGPEDFQQHEQIRRK [RPO26], the protein stability index was 3.3 ± 0.1. In the case of GGVGSMGAINNNIPSLT [SNF6], the protein stability index is reported as 3.26 ± 0.11. With GHTLINNYKDLLAVAIA [RPP0] the protein stability index was 1.19 ± 0.17. Work on GIFIKILNDSLIYHLKD [IRR1] yielded a protein stability index of 1.54 ± 0.045. GIGGDHAKFSPVSTASY [RPC40] showed a protein stability index of 2.59 ± 0.079. Sequence GIIVAVDSRATAGNWVA [PRE2] has a protein stability index of 1.14 ± 0.064. Work on GIKVSLLGIFDDIFIPQ [RPC25] yielded a protein stability index of 1.78 ± 0.077. In the case of GILGNKAQAKMDKRAKN [RPL8A], the protein stability index is reported as 3.59 ± 0.12. GILLLDSLIQLANRSKE [YJL039C/NUP192] showed a protein stability index of 1.86 ± 0.064. In the case of GINKNEEYRKQLDKKNE [SMC1], the protein stability index is reported as 3.22 ± 0.12. In the case of GIRVQDSVILASSKAVT [PRE1], the protein stability index is reported as 2.54 ± 0.065. GITAVHVKIRATGGTRT [RPS14B] gave a protein stability index of 1.47 ± 0.052. GIVETNRPDNKNAQYHL [RPN7] gave a protein stability index of 3.17 ± 0.11. For GKALVHHYEECAERVKI [QCR6], the protein stability index was 3.47 ± 0.093. For GKETIARVTGGMKVKAD [RPS14B], the protein stability index was 1.42 ± 0.1. Sequence GKGRQSAKAELEKLVDH [PRE10] has a protein stability index of 1.82 ± 0.099. With GKHSIGLIWYLLAREVL [RPS0A] the protein stability index was 1.59 ± 0.073.
